# Measured values: article PMC6203815 (Nature Communications, 2018)
# Target: Pfs48/45 6C domain (NF54) (Plasmodium falciparum NF54, UniProt V5NSK3)
row,Binder,binding result
1,"HC2-LC2 (antibody, V domains shown) VH: EVQLVESGGGLVQPGGSLRLSCAASGFTFNNYWMSWVRQAPGKGLEWVASISNIGGTIYYPDSVKGRFTISRDSAKNSLYLQMNSLRAEDTAVYYCTRDLRMSDYFDYWGQGTLVTVSS VL: QFVLTQPHSVSESPGKTVTISCKRSTGNIGSNYVSWYQQRPGSSPTTVIYRDDQRPSGVPDRFSGSIDRSSNSASLTISGLKTEDEADYYCHSYSTGMYIFGGGTKLTVL",binds
2,"HC2-LC3 (antibody, V domains shown) VH: EVQLVESGGGLVQPGGSLRLSCAASGFTFNNYWMSWVRQAPGKGLEWVASISNIGGTIYYPDSVKGRFTISRDSAKNSLYLQMNSLRAEDTAVYYCTRDLRMSDYFDYWGQGTLVTVSS VL: QFMLTQPHSVSESPGKTVTISCTRSTGNIGSNYVSWYQQRPGSAPTTVIYRDDQRPSGVPDRFSGSIDRSSNSASLTISRLKTEDEADYYCHSYSTGMYIFGGGTKLTVL",binds
3,"HC1-LC1 (antibody, V domains shown) VH: EVQLVESGGGLVQPGGSLRLSCAASGFTFNNYWMSWVRQAPGKGLEWVASISNIGGTIYYPDSVKGRFTISRDNAKNSLYLQMNSLRAEDTAVYYCTRDLRMSDYFDYWGQGTLVTVSS VL: NFMLTQPHSVSESPGKTVTISCTRSTGNIGSNYVSWYQQRPGSSPTTVIYRDDQRPSGVPDRFSGSIDRSSNSASLTISGLKTEDEADYYCHSYSTGMYIFGGGTKLTVL",binds
4,"HC1-LC3 (antibody, V domains shown) VH: EVQLVESGGGLVQPGGSLRLSCAASGFTFNNYWMSWVRQAPGKGLEWVASISNIGGTIYYPDSVKGRFTISRDNAKNSLYLQMNSLRAEDTAVYYCTRDLRMSDYFDYWGQGTLVTVSS VL: QFMLTQPHSVSESPGKTVTISCTRSTGNIGSNYVSWYQQRPGSAPTTVIYRDDQRPSGVPDRFSGSIDRSSNSASLTISRLKTEDEADYYCHSYSTGMYIFGGGTKLTVL",binds
5,"HC1-LC2 (antibody, V domains shown) VH: EVQLVESGGGLVQPGGSLRLSCAASGFTFNNYWMSWVRQAPGKGLEWVASISNIGGTIYYPDSVKGRFTISRDNAKNSLYLQMNSLRAEDTAVYYCTRDLRMSDYFDYWGQGTLVTVSS VL: QFVLTQPHSVSESPGKTVTISCKRSTGNIGSNYVSWYQQRPGSSPTTVIYRDDQRPSGVPDRFSGSIDRSSNSASLTISGLKTEDEADYYCHSYSTGMYIFGGGTKLTVL",binds
